In the supplement of paper PMC6755084:

B1: minF1; a variant is named by its letters at N, in order (parent)
chain: GAGACCGCAACTGAAAAGTTGTTNNNNAANNNNGGNTNNATTTCTGCACGTAGAAGCAAAAGGC

Variants of: B1
Assay: fraction ligated after 30 min (ligated reads / total reads); higher = more ligase activity
Details: with F1*subA RNA substrate (template-directed ligation), 42 °C
Method: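 Chip-synthesised pool of minF1 ligase ribozyme variants (single and double substitutions, single to quadruple deletions, bulge and P2 designed variants) was transcribed with T7 and reacted as a pool with excess substrate F1*subA for 30 min at 42 C in 50 mM EPPS pH 8.5, 25 mM MgCl2. Ligated and unligated RNAs were separated by PAGE, barcoded by RT and deep sequenced; fraction ligated = ligated reads / total reads, relative activity = FL / FL of wild-type minF1 (0.76); sequencing FL correlated with PAGE (R2 = 0.98). Sequences are the DNA template of the ribozyme.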

Variant	fraction ligated
ATAGAGAGTGA	0.000691
TCAGGATGTGA T23A A28T A29G	0.00354
TCAGTGGTGTG T23A	0.00413
TCAGGGAGTGA T23A	0.0029
TCGAGGATGTG T23A	0.00538
TCAGTGGAGTG T23A	0.00892
TCGAGGAGTGA T23A A29T	0.00108
ATAATGGAGTA	0.00371
ATAATGGAGTG	0.00646
TCGAGATGTGA T23A	0.00396
AGAAGGATGTA T23C A29T	0.00442
TCGATGATTGA	0.00257
TCAGATGGGTT G34T T37G A40G	0.000744
ACAGGGAGTGA	0.00202
ACAGATGGTGA	0.00375
ACGATGTGTGA	0.00232
TCAGATGGGTG T23A	0.00293
TCGAGATGTGA A29G	0.00245
TCGAGATGTGA A29T	0.00243
ATAGAGTGTGA	0.00554
TCGATGGTTGA T23A	0.00216
TGAAGGTGTGA A29T	0.00178
ACGATGGAGTT G34T T37G	0.00155
ACGATGAGTGA	0.0021

Variant	fraction ligated
TCAGGATGTGA A29T	0.00155
TCAGGATGTGA A29G	0.00144
CGAAGGATGTG A29T	0.0152
ATAGAGGATGA	0.00219
TCGATGGAGTT G34T T37G A40G	0.000433
AGAAGGAGTGA T23A A29T	0.00185
TCAGTGATTGA	0.00169
TCGATATGTGA T23A	0.00444
AGAAGGAGTGA A29T	0.00436
ATAAGGTGTGA	0.00238
TCAGTGATGTG T23A	0.00385
TCAGATTGTGA T23A	0.00184
ACGAGGATTGA	0.00256
TCGAGGATTGA	0.00327
AGAAGATGTGA T23A A28T A29G	0.00449
TCAGGATGTGA T23A	0.00221
TCAGGGATGTG T23A	0.00389
TCAGGGAGTGA T23A A29T	0.000582
ATAATGAGTGA	0.00461
TCAGTGGAGTT G34T T37G	0.00084
TGAAGGATGTG T23A A29T	0.00766
ACAGATTGTGA	0.00539
TCAGGATGTGA T23A A29T	0.00222
TCAGGATGTGA T23A A29G	0.00232

Variant	fraction ligated
ATAGAGGAGTG G34T	0.0028
TCAGATGGGTT T23A G34A G35T T37G	0.00134
ATAAGGATTGA	0.0033
ACGAGATGTGA A28T A29G	0.00619
TCGATGGAGTG G34T	0.253
TCGATGATGTG T23A	0.00459
ACGATGGATGA	0.0034
ACGAGGATGTG A29T	0.0152
AGAAGGTGTGA T23C A29T	0.00383
ACAGGGATGTG	0.00506
ACAGGGATGTA	0.00263
TCGAGGATTGA T23A	0.00135
AGAAGGTGTGA T23A A29T	0.00188
ATAATGATGTG	0.00571
ATAATGATGTA	0.00361
ACGATATGTGA	0.00174
TCAGATGTGTG T23A	0.00627
TCAGGGAGTGA A29T	0.00242
AGAAGATGTGA T23C A29G	0.00313
AGAAGATGTGA T23C A29T	0.00701
ATAAGGAGTGA	0.000696
TCGATGTGTGA T23A	0.00234
TCAGTGGAGTG G34T	0.0219
TCAGTGATGTA T23A	0.00165

Variant	fraction ligated
AGAAGGATTGA T23A A29T	0.00594
TCAGTGGAGTA T23A	0.00382
AGAAGGATGTA A29T	0.00434
TCAGGGATTGA T23A A29T	0.0045
TCAGTGGAGTA G34T	0.00892
TGAAGATGTGA T23A A28T A29G	0.00603
ATAGAGGAGTA G34T	0.00281
CGAAGGAGTGA A29T	0.00331
TCGATGGGTGA	0.00376
TCGAGGTGTGA A29T	0.00308
TCGATGGAGTG T23A G34T	0.25
TCAGATGTTGA T23A	0.00154
TCAGGGTGTGA A29T	0.00272
ATAATGGTGTA	0.00235
ATAATGGTGTG	0.00419
TCGATGGAGTG	0.0131
TCGATGGAGTA	0.00705
CGAAGGATGTA A29T	0.00492
TCGATGGGTGA T23A	0.000539
TCGATGATGTA	0.00391
TCGATGATGTG	0.00893
TCGAGGATTGA T23A A29T	0.00747
TCGATGATTGA T23A	0.00304
ATAGAATGTGA	0.00417

Variant	fraction ligated
TCAGATGGGTT T23A G34T T37G A40G	0.00157
ATAATGGAGTG G34T	0.0113
TCAGGGATGTG T23A A29T	0.0102
TCAGGGAGTGA	0.00359
TCAGATTGTGA	0.00132
ACAGGATGTGA A29G	0.00108
ACAGGATGTGA A29T	0.00171
ATAATGGAGTT G34T T37G A40G	0.00113
TCAGATGGGTT G34A G35T T37G A40G	0.000594
ACAGTGGAGTT G34T T37G A40G	0.00141
TCGATGGAGTT T23A G34T T37G	0.001
TCGATGGTTGA	0.00257
AGAAGGATTGA A29T	0.00498
ATAGATAGTGA	0.00268
TCAGATGGGTT T23A G34T T37G	0.00101
ATAGAGGAGTG	0.00449
ATAGAGGAGTA	0.00256
ATAGAGGAGTT G34T T37G	0.00132
TCGATGGATGA	0.00257
ATAAGATGTGA	0.00253
ACGATGGAGTA	0.00344
ACGATGGAGTG	0.0132
TCAGTGGTGTA T23A	0.00153
ATAATATGTGA	0.00335

Variant	fraction ligated
TCAGATGGGTT G34A T37G A40G	0.00106
TCAGATGGGTT T23A G34A T37G A40G	0
ACGAGGAGTGA	0.000641
TCAGTGGGTGA	0.00233
ATAGAGGGTGA	0.00176
TCGATGGAGTA G34T	0.143
TCAGATGGGTT G34A T37G	0.00135
AGAAGGATGTA T23A A29T	0.00442
TCAGTGGTGTG	0.00278
TCAGTGGTGTA	0.00201
TCGAGGAGTGA	0.00338
TCGAGGTGTGA T23A A29T	0.00169
ACGATGATTGA	0.00224
AGAAGGTGTGA A29T	0.0036
ATAATGGAGTA G34T	0.00307
ATAATGGGTGA	0.00329
TGAAGGATTGA T23A A29T	0.00566
TCAGTGGATGA T23A	0.00222
ACGAGGATTGA A29T	0.00766
TCGAGGAGTGA A29T	0.00284
TCAGTGGAGTA	0.00247
TCAGTGGAGTG	0.00572
ACGATGATGTA	0.00144
ACGATGATGTG	0.00517

Variant	fraction ligated
TCGAGGATGTA	0.00168
TCGAGGATGTG	0.00804
TCAGATGTTGA	0.0015
TCAGTGGTTGA	0.00261
TCGATGGAGTA T23A G34T	0.139
TCAGATGGTGA	0.00356
CGAAGGTGTGA A29T	0.00384
ACAGATGGGTT G34A G35T T37G A40G	0.000584
ATAGAGGTGTA	0.00141
ATAGAGGTGTG	0.00428
ACGATGGGTGA	0.00155
ACAGGATGTGA A28T A29G	0.0031
TCGATGGAGTT G34T T37G	0.00201
ACAGTGATGTA	0.00194
ACAGTGATGTG	0.00312
CGAAGGATTGA A29T	0.00943
TCAGTGGGTGA T23A	0.0036
ATAATGATTGA	0.00291
ACAGGGAGTGA A29T	0.00347
CGAAGATGTGA A29T	0.00363
CGAAGATGTGA A29G	0.00313
ATAAGGTGTGA A29T	0.00316
ACAGTGGGTGA	0.00475
